Data: the supplement of paper PMC7877785
± gives the uncertainty stated by the source.

Experiment: self-splicing fitness, log relative to wild type (ln ratio); higher = more splicing; Tetrahymena group I intron in knt gene, E. coli kanamycin selection, DiMSum; sequences stand for … in CUCUCU…GGAGGGAAAAGUUAUCAGGCAUGCACCUGGUAGCUAGUCUUUAAACCAAUAGAUUGCAUCGGUUUAAAAGGCAAGACCGUCAAAUUGCGGGAAAGGGGUCAACAGCCGUUCAGUACCAAGUCUCAGGGGAAACUUUGAGAUGGCCUUGCAAAGGGUAUGGUAAUAAGCUGACGGACAUGGUCCUAACCACGCAGCCAAGUCCUAAGUCAACAGAUCUUCUGUUGAUAUGGAUGCAGUUCACAGACUAAAUGUCGGUCGGGGAAGAUGUAUUCUUCUCAUAAGAUAUAGUCGGACCUCUCCUUAAUGGGAGCUAGCGGAUGAAGUGAUGCAACACUGGAGCCGCUGGGAACUAAUUUGUAUGCGAAAGUAUAUUGAUUAGUUUUGGAGUACUCGUGGUCG
Procedure, shortened: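 Colonies from six replicate transformations of E. coli BL21(DE3) were pooled and amplicon-sequenced on an Illumina HiSeq 2500. The library placed an intron with all eight P1ex-region nucleotides randomised inside the knt kanamycin-resistance gene on pET-22b(+), and cells grew overnight at 37°C or 30°C on LB agar with or without 25 μg/mL kanamycin (plus 100 μg/mL carbenicillin, 50 μM IPTG, 0.2% rhamnose). Fitness is the DiMSum error-weighted combination of wild-type-normalised replicate fold changes, kanamycin versus none.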

Sequence	self-splicing fitness (ln) (30 °C)	self-splicing fitness (ln) (37 °C)
AAUCAGCAAUAUUACGGGUG	-0.238 ± 0.044	0.275 ± 0.06
AAUCAGCAAUAUUACGGUAU	0.192 ± 0.063	0.705 ± 0.088
AAUCAGCAAUAUUACGGUCG	-0.214 ± 0.048	0.0375 ± 0.065
AAUCAGCAAUAUUACGGUCU	-0.356 ± 0.06	-0.224 ± 0.071
AAUCAGCAAUAUUACGUAAU	-0.172 ± 0.059	0.204 ± 0.075
AAUCAGCAAUAUUACGUACA	-0.484 ± 0.076	0.13 ± 0.1
AAUCAGCAAUAUUACGUAGC	-1.93 ± 0.093	-0.229 ± 0.12
AAUCAGCAAUAUUACGUAGG	-1.61 ± 0.056	-0.958 ± 0.077
AAUCAGCAAUAUUACGUCAC	-3.34 ± 0.27	-1.93 ± 0.19
AAUCAGCAAUAUUACGUCGU	-0.489 ± 0.054	0.414 ± 0.071
AAUCAGCAAUAUUACGUUAG	-3.15 ± 0.2	-2.86 ± 0.23
AAUCAGCAAUAUUACGUUCG	-1.51 ± 0.07	-0.466 ± 0.089
AAUCAGCAAUAUUACGUUUU	-0.639 ± 0.058	-0.399 ± 0.085
AAUGAGCAAUAUUACGAAAC	–	-1.27 ± 0.32
AAUGAGCAAUAUUACGAAGA	-2.8 ± 0.19	-2.91 ± 0.26
AAUGAGCAAUAUUACGACCC	-3.25 ± 0.32	0.0637 ± 0.21
AAUGAGCAAUAUUACGACUA	-2.47 ± 0.25	-0.177 ± 0.21
AAUGAGCAAUAUUACGAGAU	-3.92 ± 0.21	-2.23 ± 0.13
AAUGAGCAAUAUUACGAUCG	-3.6 ± 0.32	-2.59 ± 0.24
AAUGAGCAAUAUUACGAUGG	-1.98 ± 0.13	-2.1 ± 0.26
AAUGAGCAAUAUUACGCCCA	-2.56 ± 0.3	-1.75 ± 0.32
AAUGAGCAAUAUUACGCGAG	-2.49 ± 0.16	-1.46 ± 0.14
AAUGAGCAAUAUUACGCGUA	-2.4 ± 0.27	-1.62 ± 0.25
AAUGAGCAAUAUUACGCGUC	-3.02 ± 0.29	-2.25 ± 0.29
AAUGAGCAAUAUUACGCUCA	-1.91 ± 0.42	-0.648 ± 0.38

Sequence	self-splicing fitness (ln) (30 °C)	self-splicing fitness (ln) (37 °C)
AAUGAGCAAUAUUACGGGGA	-2.54 ± 0.17	-2.22 ± 0.25
AAUGAGCAAUAUUACGGUAA	-1.61 ± 0.34	-2.24 ± 0.4
AAUGAGCAAUAUUACGGUGC	-3.37 ± 0.23	-3.03 ± 0.27
AAUGAGCAAUAUUACGGUUC	-2.91 ± 0.15	-2.48 ± 0.18
AAUGAGCAAUAUUACGUAUA	-3.43 ± 0.17	-1.93 ± 0.13
AAUGAGCAAUAUUACGUGAA	-2.17 ± 0.16	-1.8 ± 0.27
AAUGAGCAAUAUUACGUGAC	-3.08 ± 0.37	-1.25 ± 0.19
AAUGAGCAAUAUUACGUGGC	-2.82 ± 0.15	-2.7 ± 0.2
AAUGAGCAAUAUUACGUUAU	-4.01 ± 0.21	-3.73 ± 0.24
AAUUAGCAAUAUUACGAAAU	-1.2 ± 0.16	-1.09 ± 0.23
AAUUAGCAAUAUUACGACAG	-1.72 ± 0.32	-0.992 ± 0.25
AAUUAGCAAUAUUACGAGCC	–	-1.57 ± 0.47
AAUUAGCAAUAUUACGAGGA	-2.64 ± 0.26	-0.851 ± 0.18
AAUUAGCAAUAUUACGAGUG	-1.08 ± 0.081	-0.525 ± 0.11
AAUUAGCAAUAUUACGAUCA	-0.335 ± 0.28	-0.16 ± 0.22
AAUUAGCAAUAUUACGCCGU	-0.928 ± 0.23	-0.523 ± 0.26
AAUUAGCAAUAUUACGCGUG	-0.374 ± 0.066	-0.101 ± 0.083
AAUUAGCAAUAUUACGCUAG	-2.38 ± 0.13	-1.06 ± 0.13
AAUUAGCAAUAUUACGCUCG	0.0366 ± 0.13	0.217 ± 0.16
AAUUAGCAAUAUUACGCUUC	-2.91 ± 0.39	-3.71 ± 0.39
AAUUAGCAAUAUUACGGAAG	–	-0.915 ± 0.42
AAUUAGCAAUAUUACGGGCU	-2.04 ± 0.23	-1.64 ± 0.26
AAUUAGCAAUAUUACGGGUC	-1.55 ± 0.24	-0.486 ± 0.24
AAUUAGCAAUAUUACGGGUG	-1.04 ± 0.066	-0.54 ± 0.083
AAUUAGCAAUAUUACGGUAG	-4.2 ± 0.39	-1.66 ± 0.24

Sequence	self-splicing fitness (ln) (30 °C)	self-splicing fitness (ln) (37 °C)
AAUUAGCAAUAUUACGGUGC	-2.19 ± 0.26	-3 ± 0.43
AAUUAGCAAUAUUACGUACC	-0.499 ± 0.21	-0.307 ± 0.29
AAUUAGCAAUAUUACGUAGA	-1.75 ± 0.14	-2.03 ± 0.17
AAUUAGCAAUAUUACGUCGA	-1.22 ± 0.14	-0.488 ± 0.15
AAUUAGCAAUAUUACGUGUU	-1.05 ± 0.11	-1.78 ± 0.13
AAUUAGCAAUAUUACGUUCA	-0.618 ± 0.1	-0.409 ± 0.12
AAUUAGCAAUAUUACGUUGC	-3.47 ± 0.46	-2.75 ± 0.38
AAUUAGCAAUAUUACGUUGU	-3.79 ± 0.15	-1.72 ± 0.15
ACAAAGCAAUAUUACGACCA	-0.633 ± 0.12	-0.407 ± 0.13
ACAAAGCAAUAUUACGACGG	-1.06 ± 0.07	-0.665 ± 0.093
ACAAAGCAAUAUUACGAGAG	-2.93 ± 0.16	-1.1 ± 0.1
ACAAAGCAAUAUUACGAGUC	-4.66 ± 0.25	-2.95 ± 0.23
ACAAAGCAAUAUUACGAUUG	-2.14 ± 0.069	-1.55 ± 0.092
ACAAAGCAAUAUUACGCAUG	-1.82 ± 0.075	-0.868 ± 0.084
ACAAAGCAAUAUUACGCCGU	-2.44 ± 0.16	-1.41 ± 0.21
ACAAAGCAAUAUUACGCCUC	-2.8 ± 0.28	-2.2 ± 0.3
ACAAAGCAAUAUUACGCGAU	-2.75 ± 0.14	-2.22 ± 0.16
ACAAAGCAAUAUUACGCGCU	-0.245 ± 0.053	0.00495 ± 0.066
ACAAAGCAAUAUUACGCUCA	-0.782 ± 0.088	0.156 ± 0.11
ACAAAGCAAUAUUACGCUGG	-1.3 ± 0.095	-0.426 ± 0.12
ACAAAGCAAUAUUACGGAAU	-3.21 ± 0.19	-1.82 ± 0.19
ACAAAGCAAUAUUACGGAUC	-2.77 ± 0.12	-0.403 ± 0.11
ACAAAGCAAUAUUACGGCGC	-0.996 ± 0.076	0.358 ± 0.12
ACAAAGCAAUAUUACGGCUC	-0.452 ± 0.078	-0.217 ± 0.12
ACAAAGCAAUAUUACGGGCA	-1.56 ± 0.069	-1.28 ± 0.056
